Source: patent US20260226168A1 (published 2026)
Positions count from the first letter of the chain named.

T1: human GPRC5D protein (UniProt Q9NZD1 1-345)
T1 chain: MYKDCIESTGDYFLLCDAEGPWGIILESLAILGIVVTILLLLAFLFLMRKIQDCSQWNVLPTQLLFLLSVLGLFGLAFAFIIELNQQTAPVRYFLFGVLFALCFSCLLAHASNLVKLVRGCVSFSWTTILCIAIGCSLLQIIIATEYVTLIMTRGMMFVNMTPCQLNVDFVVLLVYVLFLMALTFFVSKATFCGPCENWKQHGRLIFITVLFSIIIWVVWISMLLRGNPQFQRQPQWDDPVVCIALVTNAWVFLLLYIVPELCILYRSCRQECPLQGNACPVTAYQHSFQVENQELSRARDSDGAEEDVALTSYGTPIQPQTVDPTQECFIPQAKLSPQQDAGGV

B1: Chi-128 (antibody, V domains shown)
VH: DVQLVESGGGLVQPGGSRKVSCAASGFTFSSFGMHWVRQAPEKGLEWVAYISRGSSTIYYADTVKGRFTISRDNPKNTLFLQMTSLRSEDTAMYYCARSGYGSSSYYFDYWGQGTTLTVSS
VL: ENVLTQSPAIMSASPREKVTMTCRASSSIRSSYLHWYQQKSGASPKLWIYSTSNLASGVPARFSGSGSGTSYSLTISSVEAEDAATYYCQQFSGYPLTFGGGTKLEIKR
B2: Chi-131 (antibody, V domains shown)
VH: EVQLQQSGPELVKPGASVKMSCKASGYTFTNYVMHWVKQKPGQGLEWIGYFNPYNDGTNYNEKFKGKATLTSDKSSNTAYMELSSLTSEDSAVYYCARGGVRRYFDVWGAGTTVTVSS
VL: DIQMTQSPSSLSASLGERVSLTCRASQDIGSNLNWLQLGPDGTIKRLIYATFSLDSGVPKRFSGSRSGSDYSLTISSLESEDFVDYYCQQYANFPPTFGGGTKLEIKR
B3: Chi-169 (antibody, V domains shown)
VH: EVKLVESGGGLVKPGASLKLSCAASGFTFSNYGMSWVRQTSDKRLEWVASISSGGGRIYYPDNVKGRFTISRENAKNTLYLQMSSLKSEDTALYYCTRHAMDNWGQGTSVIVSS
VL: QIVLTQSPAIMSASPGEKVTMTCSASSSVSNMYWYQQKSGTSPKRWIYDTSKLASGVPARFSGSGSGTSYSLTISSMEAEDASTYYCQQWSSNPLTFGAGTTLELKR
B4: Chi-105 (antibody, V domains shown)
VH: EVQLQQSGPELVKPGASVKMSCKASGYTFTDYYMNWVKQSHGKSLEWIGYIYPNNGGTGYNQRFKGKATLTADKSSSTAYMELRSLTSEDSAVYYCARWGGTRLGYYAMDYWGQGTSVTVSS
VL: DIVMTQSQKFMSTSVGDRVSVTCKASQNVGTNVVWYQQKPGQSPKLLIYWASTRHTGVPDRFTGSGSGTDFTLTISNVQSEDLADYFCQQYSRYPYTFGGGTKLEIKR
B5: Chi-89 (antibody, V domains shown)
VH: EVQLVESGGDLVKPGGSLKLSCAASGFTFSSYGMSWVRQTPDKRLEWVATISSGGSYTYYPDSVKGRFTFSRDNAKNTLYLQMSSLKSEDTAMYYCVRQALRYHMDSWGQGTSVTVSS
VL: B4 VL with V34A, L46A, W50S, T53Y, H55Y, T56S, Y86F, S92Y, R93S, Y96W

Target: T1, human GPRC5D protein
Test: FACS, cells with high expression of hGPRC5D

EC50 [nM]	Binder
0.76	B1
0.66	B2
0.66	B3
1.44	B4
0.7	B5
